# From publication PMC3195669 (Biologics : Targets & Therapy, 2011)
# B1: recombinant mouse full-length adiponectin subfractions, unlabeled (natural protein, UniProt Q60994 18-247, looked up)
# chain: EDDVTTTEELAPALVPPPKGTCAGWMAGIPGHPGHNGTPGRDGRDGTPGEKGEKGDAGLLGPKGETGDVGMTGAEGPRGFPGTPGRKGEPGEAAYVYRSAFSVGLETRVTVPNVPIRFTKIFYNQQNHYDGSTGKFYCNIPGLYYFSYHITVYMKDVKVSLFKKDKAVLFTYDQYQEKNVDQASGSVLLHLEVGDQVWLQVYGDGDHNGLYADNVNDSTFTGFLLYHDTN
# Target: the molecule itself
# Test: SDS-PAGE without heat denaturation or reducing agent
protein,measurement,value
B1,stoichiometry N,6
